Data: the supplement of paper PMC9112550, “Optimization of the antimicrobial peptide Bac7 by deep mutational scanning” (BMC Biology, 2022)
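Also: peptides expressed intracellularly from a pBAD plasmid library in pooled LB shake-flask culture, induced with 0.3% L-arabinose, DNA abundance read by NGS, three biological replicates, DESeq2 with apeglm shrinkage.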

Each sequence was assayed on Escherichia coli TOP10 (assay: shrunken log2 fold change of peptide-encoding DNA abundance (4.5 h post-induction vs induction); higher = less antimicrobial activity (less host growth inhibition)). Details: time post-induction: 4.5 h; library: site-saturation at positions 5, 18, 19, 20.
In the case of RRIRTRPPRLPRPRPRPPKQPRP, the “shrunken log2 fold change” value is reported as -0.00507.
With RRIRYRPPRLPRPRPRPDDAPRP the “shrunken log2 fold change” value was -0.199.
RRIRMRPPRLPRPRPRPNKVPRP was tested, and the “shrunken log2 fold change” value was 0.0418.
RRIRLRPPRLPRPRPRPYVFPRP was tested, and the “shrunken log2 fold change” value was -0.515.
In the case of RRIRSRPPRLPRPRPRPYVPPRP, the “shrunken log2 fold change” value is reported as -0.784.
RRIRDRPPRLPRPRPRPMIFPRP was tested, and the “shrunken log2 fold change” value was 0.0749.
RRIRNRPPRLPRPRPRPMVMPRP was tested, and the “shrunken log2 fold change” value was -0.383.
In the case of RRIRHRPPRLPRPRPRPGPAPRP, the “shrunken log2 fold change” value is reported as 0.871.
With RRIRFRPPRLPRPRPRPTKDPRP the “shrunken log2 fold change” value was -0.196.
For RRIRYRPPRLPRPRPRPSFTPRP, the “shrunken log2 fold change” value was -0.91.
RRIRKRPPRLPRPRPRPVQLPRP was tested, and the “shrunken log2 fold change” value was 0.349.
In the case of RRIRFRPPRLPRPRPRPSQPPRP, the “shrunken log2 fold change” value is reported as -0.0776.
In the case of RRIRVRPPRLPRPRPRPIYCPRP, the “shrunken log2 fold change” value is reported as -0.113.
RRIRTRPPRLPRPRPRPMMKPRP was tested, and the “shrunken log2 fold change” value was -0.11.
RRIRTRPPRLPRPRPRPTFVPRP was tested, and the “shrunken log2 fold change” value was -0.262.
With RRIRIRPPRLPRPRPRPIYWPRP the “shrunken log2 fold change” value was -0.105.
With RRIRARPPRLPRPRPRPQNPPRP the “shrunken log2 fold change” value was 0.0626.
RRIRCRPPRLPRPRPRPSELPRP was tested, and the “shrunken log2 fold change” value was -0.107.
With RRIRPRPPRLPRPRPRPHFAPRP the “shrunken log2 fold change” value was 0.284.
With RRIRWRPPRLPRPRPRPVRNPRP the “shrunken log2 fold change” value was 0.432.
In the case of RRIRLRPPRLPRPRPRPMDLPRP, the “shrunken log2 fold change” value is reported as -0.171.
RRIRQRPPRLPRPRPRPHYAPRP was tested, and the “shrunken log2 fold change” value was -0.0213.
RRIRYRPPRLPRPRPRPYKCPRP was tested, and the “shrunken log2 fold change” value was -0.175.
RRIRNRPPRLPRPRPRPQHNPRP was tested, and the “shrunken log2 fold change” value was -0.625.
For RRIRKRPPRLPRPRPRPYFDPRP, the “shrunken log2 fold change” value was -0.383.
RRIRDRPPRLPRPRPRPICFPRP was tested, and the “shrunken log2 fold change” value was 0.227.
In the case of RRIRGRPPRLPRPRPRPDEWPRP, the “shrunken log2 fold change” value is reported as 0.757.
In the case of RRIRIRPPRLPRPRPRPYQWPRP, the “shrunken log2 fold change” value is reported as -0.316.
RRIRYRPPRLPRPRPRPGNHPRP was tested, and the “shrunken log2 fold change” value was -0.064.
RRIRWRPPRLPRPRPRPRNHPRP was tested, and the “shrunken log2 fold change” value was -0.141.
With RRIRDRPPRLPRPRPRPSMDPRP the “shrunken log2 fold change” value was -0.0183.
In the case of RRIRDRPPRLPRPRPRPSPMPRP, the “shrunken log2 fold change” value is reported as 0.136.
RRIRQRPPRLPRPRPRPSQYPRP was tested, and the “shrunken log2 fold change” value was -0.244.
RRIRFRPPRLPRPRPRPDYTPRP was tested, and the “shrunken log2 fold change” value was -0.02.
In the case of RRIRMRPPRLPRPRPRPFNRPRP, the “shrunken log2 fold change” value is reported as -0.00136.
With RRIRYRPPRLPRPRPRPYYDPRP the “shrunken log2 fold change” value was -0.15.
In the case of RRIRKRPPRLPRPRPRPGMNPRP, the “shrunken log2 fold change” value is reported as -0.0284.
RRIRARPPRLPRPRPRPTHNPRP was tested, and the “shrunken log2 fold change” value was 0.523.
RRIRCRPPRLPRPRPRPYENPRP was tested, and the “shrunken log2 fold change” value was -0.145.
RRIRARPPRLPRPRPRPHFIPRP was tested, and the “shrunken log2 fold change” value was 0.179.
RRIRARPPRLPRPRPRPNYVPRP was tested, and the “shrunken log2 fold change” value was -0.35.
In the case of RRIRLRPPRLPRPRPRPSGRPRP, the “shrunken log2 fold change” value is reported as 0.448.
For RRIRQRPPRLPRPRPRPYQMPRP, the “shrunken log2 fold change” value was -0.00133.
With RRIRKRPPRLPRPRPRPTWQPRP the “shrunken log2 fold change” value was 0.58.
In the case of RRIRCRPPRLPRPRPRPCNAPRP, the “shrunken log2 fold change” value is reported as -0.448.
With RRIRMRPPRLPRPRPRPGALPRP the “shrunken log2 fold change” value was 0.954.
For RRIRKRPPRLPRPRPRPPQEPRP, the “shrunken log2 fold change” value was 0.0788.
With RRIRIRPPRLPRPRPRPKSGPRP the “shrunken log2 fold change” value was -0.128.
With RRIRQRPPRLPRPRPRPIRGPRP the “shrunken log2 fold change” value was -0.0547.
In the case of RRIRCRPPRLPRPRPRPLYHPRP, the “shrunken log2 fold change” value is reported as -0.695.
For RRIRQRPPRLPRPRPRPAWRPRP, the “shrunken log2 fold change” value was 0.497.
RRIRKRPPRLPRPRPRPSHPPRP was tested, and the “shrunken log2 fold change” value was 0.146.
With RRIRGRPPRLPRPRPRPTWAPRP the “shrunken log2 fold change” value was 0.987.
In the case of RRIRRRPPRLPRPRPRPDDQPRP, the “shrunken log2 fold change” value is reported as 0.167.
In the case of RRIRERPPRLPRPRPRPTQTPRP, the “shrunken log2 fold change” value is reported as -0.00311.
In the case of RRIRDRPPRLPRPRPRPFDVPRP, the “shrunken log2 fold change” value is reported as 0.016.
RRIRPRPPRLPRPRPRPNSKPRP was tested, and the “shrunken log2 fold change” value was -0.557.
In the case of RRIRTRPPRLPRPRPRPLREPRP, the “shrunken log2 fold change” value is reported as 0.318.
For RRIRGRPPRLPRPRPRPYFKPRP, the “shrunken log2 fold change” value was -0.366.
For RRIRDRPPRLPRPRPRPNVMPRP, the “shrunken log2 fold change” value was -0.323.
RRIRARPPRLPRPRPRPIGEPRP was tested, and the “shrunken log2 fold change” value was -0.0613.
In the case of RRIRWRPPRLPRPRPRPDFTPRP, the “shrunken log2 fold change” value is reported as 0.15.
With RRIRVRPPRLPRPRPRPWTFPRP the “shrunken log2 fold change” value was -0.0163.
For RRIRRRPPRLPRPRPRPDAEPRP, the “shrunken log2 fold change” value was 1.62.
RRIRWRPPRLPRPRPRPCEPPRP was tested, and the “shrunken log2 fold change” value was -0.27.
For RRIRRRPPRLPRPRPRPLMAPRP, the “shrunken log2 fold change” value was 0.312.
RRIRARPPRLPRPRPRPFILPRP was tested, and the “shrunken log2 fold change” value was -0.39.
In the case of RRIRVRPPRLPRPRPRPIHNPRP, the “shrunken log2 fold change” value is reported as -0.554.
In the case of RRIRHRPPRLPRPRPRPPIPPRP, the “shrunken log2 fold change” value is reported as -0.11.
In the case of RRIRVRPPRLPRPRPRPVFHPRP, the “shrunken log2 fold change” value is reported as -0.213.
In the case of RRIRLRPPRLPRPRPRPDGFPRP, the “shrunken log2 fold change” value is reported as 0.052.
For RRIRVRPPRLPRPRPRPTLEPRP, the “shrunken log2 fold change” value was 0.413.
With RRIRWRPPRLPRPRPRPHFPPRP the “shrunken log2 fold change” value was 0.064.
In the case of RRIRHRPPRLPRPRPRPFANPRP, the “shrunken log2 fold change” value is reported as -0.483.
RRIRSRPPRLPRPRPRPLADPRP was tested, and the “shrunken log2 fold change” value was -0.0259.
